In patent US8680233B2, “Heteropeptides useful for reducing nonspecific adsorption” (Valorisation-Recherche, Limited Partnership, priority 2009, dated 2014):
Square brackets hold non-standard residues; d marks the D form. Peptide text beside a SMILES is read from it. azaGly = NNC(=O)O; Mpa = O=C(O)CCS

What was measured:
[1] = Capillary electrophoresis, global charge of the peptide; type: physicochemical
Protocol: Capillary electrophoresis was performed to determine if this difference of configuration is due to the global charge of the peptide.

[2] = Surface concentration of the peptide monolayer on Au by SPR; type: physicochemical; conditions: peptide SAM on Au SPR sensor; average of four replicates
Protocol: The surface coverage for each monolayer was measured according to the change in response of the SPR sensor in PBS for the bare Au surface relative to the peptide-coated Au surface. To measure the formation of the monolayers, each SPR sensor was mounted on a custom-made SPR instrument in the Kretschmann configuration based on a dove prism with wavelength interrogation as previously described (Bolduc et al., 2009, supra). An Ocean Optics™ USB4000 fibre optic spectrometer ranging from 550 to 850 nm was used to acquire the spectral information processed with Matlab to obtain the SPR sensorgram. A 25 μL Teflon fluidic cell positioned on top of the SPR sensors was used to inject the solutions required to functionalize with the recognition element and detect the analytes of interest. The SPR response was acquired at a frequency of 1 Hz. The s-polarized reference was acquired in PBS buffer before monitoring a 5 minute baseline in p-polarization. PBS was replaced with crude bovine serum (76 mg/mL protein) for 20 minutes and rinsed with PBS for 5 minutes to quantify the amount of non-specifically adsorbed proteins.
The formation of monolayers on Au was measured to ensure that the peptide monolayers are indeed binding to the SPR sensor. The surface concentration of the monolayer provides a measurement of the number of molecules per square cm (i.e. the density of the monolayer at the surface). The surface concentration (Γ) of peptide-like self-assembled monolayers (SAMs) was characterized with the measurement of the SPR response before the formation of the SAMs and after their formation on the Au surface of the SPR sensor. The difference of SPR wavelength (λSPR) between these two measurements increases with the increasing surface concentration of the SAMs following the equation proposed by Jung et al. (Jung, L. S. et al. Langmuir 1998, 14: 5636): Γ=ρ(−0.5/d)ln(1−(ΔλSPRm^−1(ηSAM−ηPBS)^−1)) (eq. 1)

[3] = Secondary structure of peptide SAM by FT-IR (mid-IR amide band); type: physicochemical; conditions: peptide SAM on gold-coated SPR sensor
Protocol: Microscope slides (BK7, 22×22 mm) were coated with a 3 nm titanium (Ti) adhesion layer and a 50 nm gold (Au) layer (purity 99.99%, ESPI metals) using a Cressington™ 308R sputter coater. These Au-coated SPR slides were immersed for at least 16 h in a 5 mM peptide solution in absolute ethanol to form a well-ordered monolayer (Masson, J. F. et al. Talanta 2004, 64: 716). Four replicates were prepared for each 3-MPA-peptide. The SAM formed on the SPR sensors was extensively rinsed with DMF and ethanol and dried. The mid-IR spectrum of the peptide monolayers immobilized on the SPR sensors was measured in attenuated total reflectance (ATR). Mid-IR spectra were recorded using a BRUKER TENSOR® 27 equipped with a Ge-ATR module.
The 3D structure of the peptides as SAMs is observed with the amide band visible in FT-IR. Peptides adopting an α-helix configuration are showing a strong amide band at 1645 cm^−1, while peptides auto-assembling in the β-sheet configuration leads to a shifted amide at 1675 cm^−1. Every peptide structure investigated in Table 1 adopted an α-helix configuration except for 3-MPA-HHHDD-OH, as shown in FIG. 3.
Peptides adopt secondary conformation, which plays a significant role in their biological activity. For peptides in solution, the secondary conformation is measured with CD, while peptides immobilized on a surface can be analyzed with mid-IR spectroscopy of the amide bands (Duevel, R. V., Corn, R. M., 1992. Analytical Chemistry 64(4), 337-342; Sakurai, T. et al., 2006. Journal of Peptide Science 12(6), 396-402). As listed in Table II, the secondary structure of most peptides adopted an α-helical conformation, with the exception of 3-MPA-DSDSD-OH, which adopted an extended conformation. As noted above, most peptides in the form of 3-MPA-peptide-OH adopt an α-helical conformation. Generally, mid-IR and CD agreed in the determination of the structures on surfaces and in solution, with the exception of one peptide. […] No relationship between structure and nonspecific adsorption could be established.

[4] = Advancing contact angle in PBS on peptide SAMs; type: physicochemical; conditions: average of four replicates
CD36 receptor = CD36 receptor (Homo sapiens, UniProt P16671); assay: SRC-kinase cellular assay following CD36 receptor activation; type: cell-based; conditions: activation of src-kinases after CD36 receptor activation
Sequence of CD36 receptor (P16671 whole entry): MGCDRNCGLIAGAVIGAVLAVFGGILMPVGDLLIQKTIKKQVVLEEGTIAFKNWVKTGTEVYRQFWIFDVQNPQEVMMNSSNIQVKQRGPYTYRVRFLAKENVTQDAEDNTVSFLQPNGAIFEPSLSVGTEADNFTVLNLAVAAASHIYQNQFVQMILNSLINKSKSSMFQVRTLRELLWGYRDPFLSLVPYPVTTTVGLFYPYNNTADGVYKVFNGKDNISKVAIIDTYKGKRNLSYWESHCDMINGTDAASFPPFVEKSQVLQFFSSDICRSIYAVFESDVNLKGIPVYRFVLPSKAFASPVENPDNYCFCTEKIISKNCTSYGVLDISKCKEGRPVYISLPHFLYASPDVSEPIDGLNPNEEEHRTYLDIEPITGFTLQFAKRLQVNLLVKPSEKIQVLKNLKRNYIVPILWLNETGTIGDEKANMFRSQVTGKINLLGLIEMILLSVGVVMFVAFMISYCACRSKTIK
Text: (§1) The SPR setup was used for investigating the structure-activity relationships of various CD36 peptidic ligands. […] The measured KD's were compared to the EC50 values obtained in the activated src-kinase assay following CD36 receptor activation by the tested peptides. […] For the src-kinase cellular assay, the response sensitivity (EC50) for the tested peptides (in decreasing order) was as follows: EP80317>CP-2A(v)>CP-3(iv)>DBG-178(27)>CP-2B(i). With SPR, the binding affinity to CD36, in decreasing order, was: DBG-178(27)>CP-2A(v)>EP80317>CP-3(iv)>CP-2B(i). […] For CD36-peptidic ligands, a correlation appears between the affinity binding of the small peptides for CD36 as determined by SPR and their efficiency to produce a cellular response in the src kinase assay. Thus, SPR appears as a selective and sensitive method to screen for CD36 ligands.

[5] = biological target: recombinant soluble His-tagged CD36 (Homo sapiens, UniProt P16671); assay: SPR screening of peptide ligands on a CD36 functionalized sensor; type: binding; conditions: CD36 functionalized sensor, linear Langmuir plot
Sequence of recombinant soluble His-tagged CD36 (P16671 30-439 limits assumed): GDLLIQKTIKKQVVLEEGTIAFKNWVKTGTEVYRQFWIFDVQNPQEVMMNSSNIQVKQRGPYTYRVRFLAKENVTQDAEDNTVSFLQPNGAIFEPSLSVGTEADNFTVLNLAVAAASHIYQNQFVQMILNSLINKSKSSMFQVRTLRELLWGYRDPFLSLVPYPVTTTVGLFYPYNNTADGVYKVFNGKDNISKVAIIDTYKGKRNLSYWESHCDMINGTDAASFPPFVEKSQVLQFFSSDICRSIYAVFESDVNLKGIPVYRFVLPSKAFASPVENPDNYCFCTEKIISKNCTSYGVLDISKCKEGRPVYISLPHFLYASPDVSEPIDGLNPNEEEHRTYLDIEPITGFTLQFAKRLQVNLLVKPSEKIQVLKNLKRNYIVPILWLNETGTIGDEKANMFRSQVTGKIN
Protocol: The SPR sensors for screening small peptidic ligand binding to a recombinant soluble His-tagged CD36 functionalized surfaces were prepared as described above. Five ligands were investigated: EP80317, CP-2B(i), CP-3(iv), CP-2A(v) and DBG-178(27) with concentrations ranging from 30 μM to 100 nM except for EP80317. The latter was used for optimizing the system with solutions ranging from 1 mM to 100 nM. EP80317 (HAIC-2MeDTrp-DLys-Trp-D-Phe-Lys-NH2) is a positive control of known activity, CP-2B(i) (His-DTrp-AzaLeu-Trp-DPhe-Ala-NH2) is a negative control, and CP-3(iv) (Ala-DTrp-Ala-AzaPhe-DPhe-Lys-NH2), CP-2A(v) (His-DTrp-AzaGly-Trp-DPhe-Lys-NH2) and DBG-178(27) (His-DTrp-Ala-azaTyr-DPhe-Lys-NH2) are novel CD36 ligands (see PCT publication No. WO 08/154,738). Another negative control was accomplished by exposing the His-tagged hDHFR functionalized surface to the same concentration of CD36 peptidic ligand. Two different approaches were used to remove the His-tagged CD36-Cu complex from the SPR sensors: concentrated histidine solution or saturated EDTA solution.
This is the case of the CD36-ligand system investigated herein, where the ligands are small peptides of about 800 to 1000 g/mol. Indeed, according to the aforementioned principle, the binding of the small peptides to the CD36 receptor should be close to the limit of detection, thus providing unreliable affinity measurements. […] This could be a consequence of a large conformational change of the CD36 receptor upon binding of specific ligands, thus providing the amplification sufficient for SPR signal detection.
as §1

Molecule: 3-MPA-HHDDD-OH ([Mpa]HHDDD-OH; SMILES O=C(O)C[C@H](NC(=O)[C@H](CC(=O)O)NC(=O)[C@H](CC(=O)O)NC(=O)[C@H](Cc1c[nH]cn1)NC(=O)[C@H](Cc1c[nH]cn1)NC(=O)CCS)C(=O)O)
- Global charge of the peptide [1]: about −1

Molecule: 3-MPA-HHHHD-OH ([Mpa]HHHHD-OH; SMILES O=C(O)C[C@H](NC(=O)[C@H](Cc1c[nH]cn1)NC(=O)[C@H](Cc1c[nH]cn1)NC(=O)[C@H](Cc1c[nH]cn1)NC(=O)[C@H](Cc1c[nH]cn1)NC(=O)CCS)C(=O)O)
- Global charge of the peptide [1]: about −1

Molecule: 3-MPA-HHHDD-OH ([Mpa]HHHDD-OH; SMILES O=C(O)C[C@H](NC(=O)[C@H](CC(=O)O)NC(=O)[C@H](Cc1c[nH]cn1)NC(=O)[C@H](Cc1c[nH]cn1)NC(=O)[C@H](Cc1c[nH]cn1)NC(=O)CCS)C(=O)O)
- Surface density ΔΓSAM [2]: 0.230 10^15 molecule/cm^2
- Secondary Structure FT-IR (SAM) [3]: β-sheet
- Contact angle in PBS θC_PBS [4]: 37.8 °
- Global charge of the peptide [1]: about −1

Molecule: NCCCC[C@H](NC(=O)[C@@H](Cc1ccccc1)NC(=O)[C@H](Cc1c[nH]c2ccccc12)NC(=O)NNC(=O)[C@@H](Cc1c[nH]c2ccccc12)NC(=O)[C@@H](N)Cc1cnc[nH]1)C(N)=O [CP-2A(v), His-DTrp-AzaGly-Trp-DPhe-Lys-NH2] (H-H[dW][azaGly]W[dF]K-NH2)
- EC50 (CD36 receptor): 26 nM
- Kd [5]: 44 nM
